Results as given in the DeepSol protein solubility set.

Assay: soluble on expression in E. coli; label from the status in PepcDB or PDB records

Question: For “MNVWLLGRGELRRRHDDVLQLERAFLTDRTGLHFVNARSSEDLLALAESRRAEQQWPVLDAEWISPVGTDTCDDLVWQNLESTLDGRPDTFYSTAGFEAGNTLSGTGELAPGEAFLAYRFWRPVRVYAVQLRAFQADFHPGRPVYPFQVARVGVGCSLQAGMSLSYGADASAPGTSCNYRCFCTTEQQTLVFDDPMVGVYLVICLKGFPQQQLTDRLHYAAVSGIRVFGEPISSPALENELSCLISRGFILDGRDAARWLDLRSAQEHAAPMHIPEDEVI”, which “soluble on expression in E. coli” value is on record?
Answer: The value was “not soluble”.

Question: For “MSENLTMSELMDSFELKHFHKGEIVKGKVISVKNDEIIVNIGHFADGVVPRNEISNDKNFDINSINVDDDIFVMVLSGDDGEGNVLLSKKRADAIKVCDDLKEAFEEEKSIKVSLKEVVKGGIVGDFNGLRVFMPASQCAGRRIENLEELVGKTLEVRVIEFNKENRKVVVSRRVIDEEIRNNEKKALWSSIKEGEKRKGKVTRLAKFGAFVDIGGVEGLVHLSDMSWSRVHKPEEVVSVGDEVEVFVSEVDMDRERIALSLKDVIKNPWETLEGLKVGNVVLGKVTNFIKVGAFVEVLPGIEGLVHISEITDENIAKPSDILELGQEVKVKILNIDDENKKMSLSIKDAVETSNEYMQYNDEEEGYSLADLFKGLNLLEHHHHHH”, which “soluble on expression in E. coli” value is on record?
Answer: Its value is “soluble”.

Question: For “MSTTANKERCLEMVAAWNRWDVSGVVAHWAPDVVHYDDEDKPVSAEEVVRRMNSAVEAFPDLRLDVRSIVGEGDRVMLRITCSATHQGVFMGIAPTGRKVRWTYLEELRFSEAGKVVEHWDVFNFSPLFRDLGVVPDGL”, which “soluble on expression in E. coli” value is on record?
Answer: The value was “soluble”.

Question: Which “soluble on expression in E. coli” value does the source give for “MEKMKNLDGKVALVTGASRGIGRAIAMRLANDGALVAIHYGRNKQAADETIREIESNEGKAFLIEADLNSIDGVKKLVEQLKNELQIRVGTSEIDILVNNAGIGTQGTIENTTEEIFDEIMAVNIKAPFFLIQQTLPLLRAEGRVINISSAEVRLGFTGSIAYGLSKGALNTMTLPLAKHLGERGITVNTIMPGYTKTDINAKLLDDPEIRNFAANSSVFGRIGQVEDIADAVAFLAASDSRWVTGQIIDVSGGFCL” here?
Answer: Its value is “not soluble”.

Question: For “MDQDYERRLLRQIVIQNENTMPRVTEMRRTLTPASSPVSSPSKHGDRFIPSRAGANWSVNFHRINENEKSPSQNRKAKDATSDNGKDGLAYSALLKNELLGAGIEKVQDPQTEDRRLQPSTPEKKGLFTYSLSTKRSSPDDGNDVSPYSLSPVSNKSQKLLRSPRKPTRKISKIPFKVLDAPELQDDFYLNLVDWSSLNVLSVGLGTCVYLWSACTSQVTRLCDLSVEGDSVTSVGWSERGNLVAVGTHKGFVQIWDAAAGKKLSMLEGHTARVGALAWNAEQLSSGSRDRMILQRDIRTPPLQSERRLQGHRQEVCGLKWSTDHQLLASGGNDNKLLVWNHSSLSPVQQYTEHLAAVKAIAWSPHQHGLLASGGGTADRCIRFWNTLTGQPLQCIDTGSQVCNLAWSKHANELVSTHGYSQNQILVWKYPSLTQVAKLTGHSYRVLYLAMSPDGEAIVTGAGDETLRFWNVFSKTRSTKESVSVLNLFTRIR”, which “soluble on expression in E. coli” value is on record?
Answer: The value was “soluble”.

Question: With “MGSDKIHHHHHHMLLHFVPINVFRETPQVSFFDAGVNGSNGADVVIHHKNAISPPDDGNFEQYYIHNHQVDHNLVIEGSRKFTLINPKWDEPHHVIFLNRAMGALQIPIGTYHRSESGKEGSIVLNQATRDDMFDQRKEFSPVSLRSNKQLRKARQAHPVYWIWEEERIKRVKLDCKGYSKNIKLEPLKTAH” as the sequence, how does the “soluble on expression in E. coli” value read?
Answer: Its value is “not soluble”.

Question: For “SNSANAADSGTLNYEVYKYNTNDTSIANDYFNKPAKYIKKNGKLYVQITVNHSHWITGMSIEGHKENIISKNTAKDERTSEFEVSKLNGKIDGKIDVYIDEKVNGKPFKYDHHYNITYKFNGPTDVAGANAP”, which “soluble on expression in E. coli” value is on record?
Answer: The value was “not soluble”.

Question: Which “soluble on expression in E. coli” value does the source give for “VRSMGFLHRACRAPSSLPAPLMARPGRSVLARPAATPPGPLCATTRPRPPQGNQPPASRISNFPPKRHKTRVLAAAEDEVSAAVAALISAHGRRHHSLNNQAAAFHGQFAQNLNVGAGSCASAETTADAPTQALLGPADRQRRQRRAVRQWLVRWAAHPGRATRGFHNHRQ” here?
Answer: The value was “not soluble”.

Question: For “MGSSHHHHHHSSGRENLYFQGHMTLTSIGPANRMARSAETHPLTWRLREDAQPVWLEEYQSKDGYAAARKALTQMAQDDIVQTVKDSGLKGRGGAGFPTGVKWGLMPKDESLNIRYLLCNADEMEPNTWKDRMLMEQLPHLLVEGMLISARALKAYRGYIFLRGEYVDAARNLNRAIDEAKAAGLLGKNILGSGFDFELFVHTGAGRYICGEETALINSLEGRRANPRSKPPFPAAVGVWGKPTCVNNVETLCNVPAIVGNGVDWYKTLARPGSEDMGTKLMGFSGKVKNPGLWELPFGVSARELFEDYAGGMRDGFQLKAWQPGGAGTGFLLPEHLDAQMFAGGIAKVGTRMGTGLAMAVDDSINMVSLLRNMEEFFARESCGWCTPCRDGLPWSVKLLRALERGEGQPGDLETLEQLVNFLGPGKTFCAHAPGAVEPLGSALKYFRAEFEAGISRQPSAAPRPATVGA”, which “soluble on expression in E. coli” value is on record?
Answer: Its value is “soluble”.

Question: For “MSVPAGSVSCLANALLNLRSSTDYNADHGVKNSILNFSNSKDASRFDGSESWSSSVLDKNQFIVAGSDSVKHFVAISTQGRGDHDQWVTSYKLRYTLDNVNWVEYNNGEIINANKDRNSIVTINFNPPIKARSIAIHPQTYNNHISLRWELYALPVKSYSNPSVQVGEVSIGDRSLNSGTGSRTIVRHVKFPVEFLSVPIVSIGCKKVDAHTDNGQMRWEGKSENITTKGFDLTFITWGNNAVYDLTFDYVAVEFNN”, which “soluble on expression in E. coli” value is on record?
Answer: Its value is “soluble”.

Question: Which “soluble on expression in E. coli” value does the source give for “MMLRSHPNTLHITKLSHSAIHQLAPSFAQLPHTNHADGQYRLRRYSVIRFIDGQVVELDKHDFMQTDQINHFQGNVVRRFEPLLSTTLKSDGMRELCALFMEANTLPDGQEIEIHQMRIAAVFDETLVAPEGVHQDGFDHIAIVGIDRYNIVGGEIMLYLSSHEAPFFRKVLENGEVAMLADSQLWHNACPIRTVDHQQEGHMDVFVLTAKDGRHALHS” here?
Answer: Its value is “not soluble”.

Question: Which “soluble on expression in E. coli” value does the source give for “MSSQSNTGNSIEAPQLPIPGQTNGSANVTVDGAGVNVGIQNGSQGQKTGMDLYFDQALNYMGEHPVITGFGAFLTLYFTAGAYKSISKGLNGGKSTTAFLKGGFDPKMNSKEALQILNLTENTLTKKKLKEVHRKIMLANHPDKGGSPFLATKINEAKDFLEKRGISK” here?
Answer: Its value is “soluble”.

Question: With “MDIHSHQQALDAYENVLEHLREKHIRITETRKAIISYMIQSTEHPSADKIYRDLQPNFPNMSLATVYNNLKVLVDEGFVSELKISNDLTTYYDFMGHQHVNVVCEICGKIADFMDVDVMDIAKEAHEQTGYKVTRIPVIAYGICPDCQAKDQPDF” as the sequence, how does the “soluble on expression in E. coli” value read?
Answer: Its value is “not soluble”.

Question: For “MYNVTQHATYKTKNKRETAVLIGVHAQTDRQFNFESTMEELDALSQTCQLNVKGQITQNREQFDHKYYVGKGKIDEIKSFIEFHDIDVVVTNDELTTAQSKTLNDNLGIKIIDRTQLILEIFALRARSREGKLQVELAQLDYLLPRLHGHGKSLSRLGGGIGTRGPGETKLEMDRRHIRTRMNEIKHQLKTVVDHRERYRNKREQNQVFQIALVGYTNAGKSSWFNVLANEETYEKNILFATLDPKTRQIQVNEGFNLIISDTVGFIQKLPTTLVAAFKSTLEEAKGADVLMHVVDASHSEYRTQIDTVNQIINDLDMDHIPQVVIFNKKDLCNEQMDVPVSKSAHVFVSSRDENDKQKVKNLVIQEIKNSLSPYEEIVDSADADRLYFLKQHTLVTELIFDETQASYRIKGFKKLLEHHHHHH”, which “soluble on expression in E. coli” value is on record?
Answer: Its value is “not soluble”.

Question: Which “soluble on expression in E. coli” value does the source give for “VWRTREAVVACIDADPHAEHVLRSAHRLAQQLDCEWHAITIEAPRVAPLPRAGRARLDQALALAETLGAHVETVAGTDMVDAATRYMRRHNITKAVVGRDAWRRRGLSGLL” here?
Answer: Its value is “not soluble”.

Question: Which “soluble on expression in E. coli” value does the source give for “MGVISAYAVVHERAAIIDPGTAKGAEIILDEIDRSWNVEYICPTHIHIDHGGGAARLAKALDAKIIVHPRGVKHVVNPEKLWEASKAVLGEVAEIYGKPESIDESKVIAVEDEQEFDLGGERLKVFHAPGHAPHMLVYYLTNSKVLFPADAVGMCFGGVVFPLTPPPFDADAALKTLKRLKGLKVDYVAFTHYGVVEGDWPIAKLEHHHHHH” here?
Answer: The value was “not soluble”.

Question: With “MPSISKTKSGERYRAPTDQARKMDRKKENKRNKKDRQQIRQAMAKYCNLDETTSKLLALERQILGLDPQPFHIDVLRKKQKVLTDSINKRRMTLQQGKEDAELKKFNDKINAYQSDCQKLAVLAQQARLAREADPDMIPLPMGDVSTAGPERNNQLLAPAMIKRKVEFQLPPRPVRVAGQKPPGPPCGLAPNFSDSEEEEEEVHDDHYDDIDLAPVPIPEFDNPYQPIHRNYGPPSSYNSMPTRMPHHHHHHHPHASSHYNPMGFQNHHEEAVISSAPQINRSNEPAAPATLSAAPELRNLRRETVKLVPAQLLRRPGDNKTIVPRQAAPVQRRPEVQKQAKNTDEAYNDFMKELDGLI” as the sequence, how does the “soluble on expression in E. coli” value read?
Answer: The value was “not soluble”.

Question: With “MLMLEREKLARLIKKRSLKVADEPVFKLSSGKLSRYYVDLKQITFDPEGDYLIGKAMYELVKEFNPDACGGLTLGADPIAYAIAFVSLMDSNPIKPFVVRKEPKGHGMKRQIEGLLNPGERVAVLEDVVTTGSSALKAVKACREYGLEVIGVFAVVDREEGGRENIEKEGIPLYSLFKLSELL” as the sequence, how does the “soluble on expression in E. coli” value read?
Answer: The value was “soluble”.

Question: With “MAAATATAAATSKKMTYEFTIDDDELSEDGKPSTDQATMCNIYKLNLPASASILSKQIAKSQAKRAKKEERHRRRVDLSTVREQDETRVSNSEENSQNASPRPMTASALVPPDEIPDSAPASHCGGGGGRSRIDSAPLGVKLQRQASLPEDQRKAEPMDEEEAELLAMLLGGIERNERKQMTLNGAGNQKIQEAPIVQAPQIPPSPGLPRLPPGAKVSEWLLERSSSPDNVSVISSVLLEDSGLLLNYQNSVGDEEEDVFFDAEEEKPDDVVNCVEHELQGKSLRVFVRDLSHVLGLSLNRNMAAMTQSLVRVEEETTTTDGPAANDSFRTGRSTSVSPRPTNEQFLRNTNGSATFNVKHSSTLARLQKLTPPNNGNTNPILSTTTTPLSSRTTRSVLRVHNVNSVPRPSVQNSTMSKSSVTANQTNRRAFSGVRMPDMNPTLQKSSPPVVTINPLTPSRPASVASSIGARSGVNGTMTASNLEGLQDLIQQQEDALRRAALNDQSTERKMSWQSDQDANNRQSTSVHSSLGSICSSKSIDGAHALSKMGTPTASRIPTPRSRLPTPRGSNLPKRVYVFFGNFGPNSR” as the sequence, how does the “soluble on expression in E. coli” value read?
Answer: The value was “not soluble”.

Question: With “VAERFVVTGGNRLSGEVAVGGAKNSVLKLMAATLLAEGTSTITNCPDILDVPLMAEVLRGLGATVELDGDVARITAPDEPKYDADFAAVRQFRASVCVLGPLVGRCKRARVALPGGDAIGSRPLDMHQAGLRQLGAHCNIEHGCVVARAETLRGAEIQLEFPSVGATENILMAAVVAEGVTTIHNAAREPDVVDLCTMLNQMGAQVEGAGSPTMTITGVPRLHPTEHRVIGDRIVAATWGIAAAMTRGDISVAGVDPAHLQLVLHKLHDAGATVTQTDASFRVTQYERPKAVNVATLPFPGFPTDLQPMAIALASIADGTSMITENVFEARFRFVEEMIRLGADARTDGHHAVVRGLPQLSSAPVWCSDIRAGAGLVLAGLVADGDTEVHDVFHIDRGYPLFVENLVSLGAEIERVCC” as the sequence, how does the “soluble on expression in E. coli” value read?
Answer: Its value is “not soluble”.

Question: Which “soluble on expression in E. coli” value does the source give for “KQGPTSVAYVEVNNNSMLNVGKYTLADGGGNAFDVAVIFAANINYDTGTKTAYLHFNENVQRVLDNAVTQIRPLQQQGIKVLLSVLGNHQGAGFANFPSQQAASAFAKQLSDAVAKYGLDGVDFNDEYAEYGNNGTAQPNDSSFVHLVTALRANMPDKIISLYNIGPAASRLSYGGVDVSDKFDYAWNPYYGTWQVPGIALPKAQLSPAAVEIGRTSRSTVADLARRTVDEGYGVYLTYNLDGGDRTADVSAFTRELYGSEAVRT” here?
Answer: Its value is “soluble”.
